From patent US5591613A, “Method for the preparation of D-arginine and L-ornithine” (Degussa Aktiengesellschaft, priority 1990, dated 1997)

Substrate: N=C(N)NCCC[C@H](N)C(=O)O
Test: Arginase-catalysed hydrolysis of L-Arg to L-Orn, initial rates in batch, with and without inhibitors
Assay type: biochemical, calf
Conditions: other: nonlinear regression of initial rate data with L-Arg; 25.0 °C
Method: In further experiments, the materials used were: Calf liver arginase (activity 110 U/mg) which was obtained from Boehringer Mannheim (Mannheim, F.R.G.). Amino acids were from Rexim (Ham, France). MnSO4, MnO2, and ascorbic acid were from E. Merck (Darmstadt, F.R.G.).
Batch conditions used were: Starting pH value, except for the activity-pH curve, was either 11.5, the natural value for L-Arg in water, or 9.5, adjusted from pH 11.5 with conc. HCl. The temperature was 25° C. unless otherwise noted. Typical concentrations of L-Arg were 0.75M. Unless otherwise mentioned, [Mn2^+ ]=5-10^-4 M. Reaction progress was followed by HPLC (amino column, mobile phase: phosphate buffer (pH 6.4)/acetonitrile).
Kinetic data was obtained as follows: Initial rate data were analyzed by a non-linear regression method (Marquardt routine) with the program OPTI (U. Giesecke, KFA J ulich).
A linear slope of 1/[S] vs. [I] plot distinguishes a purely competitive inhibition mechanism from a partially competitive one. Simultaneously, the apparent and the intrinsic KM -value are proportional to [I] according to equation (5) from which the inhibition constant KI can be calculated
Since the runs have been conducted at [LArg]=50 mM=2·Km,intr,Vo =Vmax ·2·KM,intr /(KM,intr (3+[I]/KI))=Vmax ·2/(3+[I]/KI). At [I]=KI, Vo =Vmax 2/(3+1)=Vmax /2. So, KI can be calcuated with sufficient accuracy from a Vo vs. [I] plot such as FIG. 4.

B1: Calf liver arginase (Bos taurus) (protein)
chain: MSSKPQSIGVIGAPFSKGQPRGGVEEGPTVLRKAGLLEKLKELECDVKDYGDLSFADNLDDSPFQIVKNPRCVGKASEKLADVVAEVKKTGRISLVLGGDHSLAIGSISGHARVHPDLCVIWVDAHTDINTPLTTKTGNLHGQPVSFLLKELKEKMPEVPGFYWVAPCISAKDIVYIGLRDVDPGEHYILKTLGIKYFSMTEVDKLGIGKVMEETFSYLLGRKKRPIHLSFDVDGLDPSFTPATGTPVQGGLTYREGLYITEEIYKTGLLSGLDIMEVNPSLGKTPEEVTRTVNTTVAITMACFGVAREGNHKPIDYLSPPK
notes: purchased Boehringer Mannheim (Mannheim, F.R.G.)
Km: 25.5 mM | kcat: 1200 s⁻¹
